# Measured values published in paper PMC11742690.
# Molecular target: AMDHD1 (UniProt Q96NU7)
# Test: co-immunoprecipitation, western blot
# Conditions: sites S464,S465,S467
Substance,binding against the reference (reference: wild-type SMAD2),binding against the reference (reference: wild-type SMAD3)
SMAD2 (from UniProt Q15796) SMAD2-A (S464A/S465A/S467A),lost,
SMAD3 (from UniProt P84022) SMAD3-A (three C-terminal serines to alanine),,lost
